Laboratory results reported in the supplement of paper PMC11246515.
± gives the standard deviation of the averaged measurements.

Assay: total protein half-life in vivo (active degradation + dilution); higher = more stable protein
[1] = wild type E. coli NCM3722, growth: C-lim chemostat, doubling time 3 h
[2] = E. coli NCM3722 delta-clpP delta-lon delta-hslV, growth: N-lim chemostat, doubling time 6 h
[3] = E. coli NCM3722 delta-clpP, growth: N-lim chemostat, doubling time 6 h
[4] = E. coli NCM3722 delta-hslV, growth: N-lim chemostat, doubling time 6 h
[5] = E. coli NCM3722 delta-lon, growth: N-lim chemostat, doubling time 6 h
[6] = E. coli NCM3722 delta-smpB, growth: N-lim chemostat, doubling time 6 h
[7] = wild type E. coli NCM3722, growth: C-lim chemostat, doubling time 6 h
[8] = wild type E. coli NCM3722, growth: C-lim chemostat, doubling time 12 h
[9] = wild type E. coli NCM3722, growth: N-lim chemostat, doubling time 6 h
[10] = wild type E. coli NCM3722, growth: N-lim chemostat, doubling time 12 h
[11] = wild type E. coli NCM3722, growth: P-lim chemostat, doubling time 6 h
[12] = wild type E. coli NCM3722, growth: P-lim chemostat, doubling time 12 h

| Sequence | total protein half-life in vivo [1] | total protein half-life in vivo [2] | total protein half-life in vivo [3] | total protein half-life in vivo [4] | total protein half-life in vivo [5] | total protein half-life in vivo [6] | total protein half-life in vivo [7] | total protein half-life in vivo [8] | total protein half-life in vivo [9] | total protein half-life in vivo [10] | total protein half-life in vivo [11] | total protein half-life in vivo [12] |
| --- | --- | --- | --- | --- | --- | --- | --- | --- | --- | --- | --- | --- |
| MIRQVIQRISNPEASIESLQERRFWLQCERAYTWQPIYQTCGRLMAVELLTVVTHPLNPSQRLPPDRYFTEITVSHRMEVVKEQIDLLAQKADFFIEHGLLASVNIDGPTLIALRQQPKILRQIERLPWLRFELVEHIRLPKDSTFASMCEFGPLWLDDFGTGMANFSALSEVRYDYIKIARELFVMLRQSPEGRTLFSQLLHLMNRYCRGVIVEGVETPEEWRDVQNSPAFAAQGWFLSRPAPIETLNTAVLAL | 0.512 ± 0.23 h |  |  |  |  |  |  |  |  |  |  |  |
| MVDTTQTTTEKKLTQSDIRGVFLRSNLFQGSWNFERMQALGFCFSMVPAIRRLYPENNEARKQAIRRHLEFFNTQPFVAAPILGVTLALEEQRANGAEIDDGAINGIKVGLMGPLAGVGDPIFWGTVRPVFAALGAGIAMSGSLLGPLLFFILFNLVRLATRYYGVAYGYSKGIDIVKDMGGGFLQKLTEGASILGLFVMGALVNKWTHVNIPLVVSRITDQTGKEHVTTVQTILDQLMPGLVPLLLTFACMWLLRKKVNPLWIIVGFFVIGIAGYACGLLGL | 3.168 ± 0.014 h | 6.27 ± 0.37 h | 6.2 ± 0.14 h | 5.93 ± 0.077 h | 6.13 ± 0.11 h | 6.28 ± 0.28 h | 6.21 ± 0.26 h | 13.8 ± 2.9 h | 6.51 ± 0.75 h | 12.8 ± 1.1 h | 6.24 ± 0.064 h | 13.56 ± 0.072 h |
| MNIELLQQLCEASAVSGDEQEVRDILINTLEPCVNEITFDGLGSFVARKGNKGPKVAVVGHMDEVGFMVTHIDESGFLRFTTIGGWWNQSMLNHRVTIRTHKGVKIPGVIGSVAPHALTEKQKQQPLSFDEMFIDIGANSREEVEKRGVEIGNFISPEANFACWGEDKVVGKALDNRIGCAMMAELLQTVNNPEITLYGVGSVEEEVGLRGAQTSAEHIKPDVVIVLDTAVAGDVPGIDNIKYPLKLGQGPGLMLFDKRYFPNQKLVAALKSCAAHNDLPLQFSTMKTGATDGGRYNVMGGGRPVVALCLPTRYLHANSGMISKADYEALLTLIRGFLTTLTAEKVNAFSQFRQVD | 2.53 h |  |  |  | 3.4 h | 3.85 ± 0.0073 h |  |  | 3.72 h |  | 4.06 h | 9.711 ± 0.074 h |
| MSKKIAVIGECMIELSEKGADVKRGFGGDTLNTSVYIARQVDPAALTVHYVTALGTDSFSQQMLDAWHGENVDTSLTQRMENRLPGLYYIETDSTGERTFYYWRNEAAAKFWLESEQSAAICEELANFDYLYLSGISLAILSPTSREKLLSLLRECRANGGKVIFDNNYRPRLWASKEETQQVYQQMLECTDIAFLTLDDEDALWGQQPVEDVIARTHNAGVKEVVVKRGADSCLVSIAGEGLVDVPAVKLPKEKVIDTTAAGDSFSAGYLAVRLTGGSAEDAAKRGHLTASTVIQYRGAIIPREAMPA | 2.44 ± 0.65 h | 4.86 ± 0.33 h | 4.46 ± 0.27 h | 4.84 ± 1.2 h |  | 4.53 ± 0.19 h | 5.96 ± 0.1 h | 11.1 ± 0.28 h | 4.64 ± 0.11 h | 8.67 ± 1.7 h | 5.5 ± 0.33 h | 10.6 ± 1.2 h |
| MPNITWCDLPEDVSLWPGLPLSLSGDEVMPLDYHAGRSGWLLYGRGLDKQRLTQYQSKLGAAMVIVAAWCVEDYQVIRLAGSLTARATRLAHEAQLDVAPLGKIPHLRTPGLLVMDMDSTAIQIECIDEIAKLAGTGEMVAEVTERAMRGELDFTASLRSRVATLKGADANILQQVRENLPLMPGLTQLVLKLETLGWKVAIASGGFTFFAEYLRDKLRLTAVVANELEIMDGKFTGNVIGDIVDAQYKAKTLTRLAQEYEIPLAQTVAIGDGANDLPMIKAAGLGIAYHAKPKVNEKAEVTIRHADLMGVFCILSGSLNQK [P0AGB0] | 3.01 ± 0.1 h | 5.32 ± 0.097 h | 5.09 ± 0.32 h | 5.09 ± 0.31 h | 5.43 ± 0.31 h | 5.08 ± 0.26 h | 5.07 ± 0.26 h | 10.3 ± 0.85 h | 4.819 ± 0.032 h | 8.79 ± 0.6 h | 5.83 ± 0.23 h | 11.5 ± 0.32 h |
| MNKILLQCDNLCKRYQEGSVQTDVLHNVSFSVGEGEMMAIVGSSGSGKSTLLHLLGGLDTPTSGDVIFNGQPMSKLSSAAKAELRNQKLGFIYQFHHLLPDFTALENVAMPLLIGKKKPAEINSRALEMLKAVGLDHRANHRPSELSGGERQRVAIARALVNNPRLVLADEPTGNLDARNADSIFQLLGELNRLQGTAFLVVTHDLQLAKRMSRQLEMRDGRLTAELSLMGAE | 3.22 h | 6.92 h | 6.37 ± 0.67 h |  | 6.32 ± 0.21 h |  | 6.42 ± 0.012 h | 10.8 ± 0.94 h | 5.78 ± 0.77 h | 13.1 ± 1.3 h | 5.48 ± 0.27 h |  |
| MEKKIGFIGCGNMGKAILGGLIASGQVLPGQIWVYTPSPDKVAALHDQFGINAAESAQEVAQIADIIFAAVKPGIMIKVLSEITSSLNKDSLVVSIAAGVTLDQLARALGHDRKIIRAMPNTPALVNAGMTSVTPNALVTPEDTADVLNIFRCFGEAEVIAEPMIHPVVGVSGSSPAYVFMFIEAMADAAVLGGMPRAQAYKFAAQAVMGSAKMVLETGEHPGALKDMVCSPGGTTIEAVRVLEEKGFRAAVIEAMTKCMEKSEKLSKS [P0A9L8] | 3.01 ± 0.19 h | 6.83 ± 1.6 h | 5.45 ± 0.76 h | 5.12 ± 0.073 h | 5.68 ± 0.49 h | 5.54 ± 0.52 h | 6.48 ± 1 h | 10.6 ± 2.5 h | 5.02 ± 0.91 h | 9.31 ± 1 h | 5.51 ± 0.83 h | 11.8 ± 0.66 h |
